Data on two molecules can be found in patent US20220332764A1, “T CELL EPITOPES OF HCMV AND USES OF THEREOF” (EBERHARD KARLS UNIVERSITÄT TÜBINGEN, priority 2019, published 2022).

Test in all cases: cell-based or functional assay
The target of experiment [1] is HLA-B*07:02 (human).
In experiment [2] the target is HLA-B*08:01 (human).
Experiment [3] deals with HLA-B*51:01 (human).

B1: UL34 180-188 … (peptide)
peptide: LPHERHREL
modifications: not checked
Regarding B1, the % Positive donors (after 12 days of stimulation), IFNγ ELISpot in experiment [1] amounted to 25%; in experiment [2], 90.9%.

B2: UL26 61-69 … (peptide)
peptide: LPYPRGYTL
modifications: not checked
On to B2, for which the % Positive donors (after 12 days of stimulation), IFNγ ELISpot in experiment [3] is 62.5%; in experiment [2] it was 68.8%.
